# Test results as given in paper PMC5900712.
# T1: YanA86D (monomer) (UniProt Q01842 1-499, A86D)
# T1 sequence: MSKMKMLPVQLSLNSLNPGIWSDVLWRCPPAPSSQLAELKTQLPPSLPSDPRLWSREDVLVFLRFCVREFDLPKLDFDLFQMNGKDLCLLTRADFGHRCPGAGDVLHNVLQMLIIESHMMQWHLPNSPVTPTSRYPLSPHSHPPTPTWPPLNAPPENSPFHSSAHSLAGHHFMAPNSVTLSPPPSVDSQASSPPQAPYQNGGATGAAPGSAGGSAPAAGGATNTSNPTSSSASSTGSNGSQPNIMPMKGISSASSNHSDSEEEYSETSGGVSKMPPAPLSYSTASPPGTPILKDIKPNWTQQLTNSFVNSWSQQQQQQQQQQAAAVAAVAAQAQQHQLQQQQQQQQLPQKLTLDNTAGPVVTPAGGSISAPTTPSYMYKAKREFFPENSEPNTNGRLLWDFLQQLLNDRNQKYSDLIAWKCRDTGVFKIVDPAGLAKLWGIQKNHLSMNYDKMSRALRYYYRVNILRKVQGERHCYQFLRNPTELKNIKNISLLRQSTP
# B1: MHE ETS site 6 (dsDNA)
# DNA 1: AAATGCTTAAACAGGGAAATCGTCTTGG
# DNA 2: CCAAGACGATTTCCCTGTTTAAGCATTT
# Biological target: T1, YanA86D (monomer)
# Assay: competition
binder,measurement,value
B1,binding result,no binding
